Assay results reported in patent US8632989B1, “Mutant insulin degrading enzyme and methods of use” (University of Kentucky Research Foundation, priority 2011, dated 2014).

Tested on: Saccharomyces cerevisiae
Experiment: IDE activity assay in yeast, serial dilution mating test
Format: cell-based
Conditions: MATa cells deficient for Axl1p and Ste23p, plasmid-encoded IDE
Method: Panel A depicts immunoblot of yeast-expressed IDE and IDE^K898A,K899A,S901A. Equivalent percentage amounts of total cellular extracts from yeast containing an empty expression vector or plasmids encoding IDE or the IDE^K898A,K899A,S901A mutant were analyzed by SDS-PAGE and immunoblotting using an IDE-specific antibody. […] An excess of MATa yeast were mixed with decreasing numbers of MATa cells deficient for Axl1p and Step 23p that were transformed with either an empty expression vector or a vector encoding IDE or IDE^K898A,K899A,S901A as indicated. Mating, which leads to colony growth, is dependent on production of mature a-factor pheromone by plasmid-encoded IDE. […] Concentrated samples of a-factor recovered from yeast bearing the indicated expression vector were spotted at the indicated dilutions on a lawn of RC757 MATa cells, which undergo growth arrest upon exposure to a-factor pheromone. […]
The assays take advantage of the ability of IDE, in lieu of the yeast M16 metallopeptidases Axl1p and Step 23p, to participate in the proteolytic maturation of yeast a-factor mating pheromone. […] Growth of diploid colonies, indicative of mating, was scored 3 days after incubation of plates at 30° C. […] Results of mating tests and halo assays were recorded by scanning plates with a Microtek flatbed scanner and importing digitized images into Photoshop and PowerPoint.

B1: IDE: Native rat insulin degrading enzyme (SEQ ID NO:1), expressed as hexahistidine fusion protein in Sf9 insect cells (protein, listed as Rattus norvegicus)
chain: MRNGLVWLLHPALPSTLHSILGARPPPVKRLCGFPKQIYSTMNNPAIQRIEDHIVKSPEDKREYRGLELANGIKVLLISDPTTDKSSAALDVHIGSLSDPPNIPGLSHFCEHMLFLGTKKYPKENEYSQFLSEHAGSSNAFTSGEHTNYYFDVSHEHLEGALDRFAQFFLCPLFDASCKDREVNAVDSEHEKNVMNDAWRLFQLEKATGNPKHPFSKFGTGNKYTLETRPNQEGIDVREELLKFHSTYYSSNLMAICVLGRESLDDLTNLVVKLFSEVENKNVPLPEFPEHPFQEEHLKQLYKIVPIKDIRNLYVTFPIPDLQQYYKSNPGHYLGHLIGHEGPGSLLSELKSKGWVNTLVGGQKEGARGFMFFIINVDLTEEGLLHVEDIILHMFQYIQKLRAEGPQEWVFQECKDLNAVAFRFKDKERPRGYTSKIAGKLHYYPLNGVLTAEYLLEEFRPDLIDMVLDKLRPENVRVAIVSKSFEGKTDRTEQWYGTQYKQEAIPEDVIQKWQNADLNGKFKLPTKNEFIPTNFEILALEKDATPYPALIKDTAMSKLWFKQDDKFFLPKACLNFEFFSPFAYVDPLHCNMAYLYLELLKDSLNEYAYAAELAGLSYDLQNTIYGMYLSVKGYNDKQPILLKKITEKMATFEIDKKRFEIIKEAYMRSLNNFRAEQPHQHAMYYLRLLMTEVAWTKDELKEALDDVTLPRLKAFIPQLLSRLHIEALLHGNITKQAALGVMQMVEDTLIEHAHTKPLLPSQLVRYREVQLPDRGWFVYQRRNEVHNNCGIEIYYQTDMQSTSENMFLELFCQIISEPCFNTLRTKEQLGYIVFSGPRRANGIQGLRFIIQSEKPPHYLESRVEAFLITMEKAIEDMTEEAFQKHIQALAIRRLDKPKKLSAECAKYWGEIISQQYNYDRDNIEVAYLKTLSKDDIIKFYKEMLAVDAPRRHKVSVHVLAREMDSCPVVGEFPSQNDINLSEAPPLPQPEVIHNMTEFKRGLPLFPLVKPHINFMAAKL
modifications: hexahistidine tag; wild-type Insulin Degrading Enzyme (IDE) from rat
- mating promoted in yeast: promoted mating to a greater extent
